Eight molecules from patent US20230220589A1 can be followed below.

The target in experiment [1] is M12-modified L NTAA target peptides (M12-L-P2-peptide). The experiment can be described thus: multiplex encoding assay on 288 immobilized peptides (FIG. 10); holds for at least 11 P2 residues.
Experiment [2] concerns the target M48-modified L NTAA target peptides (M48-L-P2-peptide). The experiment can be described thus: Gini coefficient of P2 tolerance from multiplex encoding heatmap.
For experiment [3] the target is unchanged. The experiment can be described thus: Gini coefficient of P1 selectivity from multiplex encoding heatmap.
The target of experiment [4] is M90-modified F NTAA target peptide. The experiment can be described thus: affinity comparison between P1 residues (method not specified; BLI / encoding assay).
In experiment [5] the target is M12-modified F NTAA target peptides (M12-F-P2-peptide). The experiment can be described thus: multiplex encoding assay on 288 immobilized peptides (FIG. 9); holds for at least 14 P2 residues.
Experiment [6] deals with M2014-modified Y NTAA target peptides (M2014-Y-P2-peptide). The experiment can be described thus: Gini coefficient of P2 tolerance from multiplex encoding heatmap.
The target is the same in experiment [7]. The experiment can be described thus: Gini coefficient of P1 selectivity from multiplex encoding heatmap.
Experiment [8] concerns the target M90-modified L NTAA target peptide. The experiment can be described thus: affinity comparison between P1 residues (method not specified; BLI / encoding assay).
Experiment [9] deals with M44-modified Y NTAA target peptides (M44-Y-P2-peptide). The experiment can be described thus: Gini coefficient of P2 tolerance from multiplex encoding heatmap.
For experiment [10] the target is unchanged. The experiment can be described thus: Gini coefficient of P1 selectivity from multiplex encoding heatmap.
Experiment [11] deals with M90-modified A NTAA target peptide. The experiment can be described thus: affinity comparison between P1 residues (method not specified; BLI / encoding assay).

A value given as a limit tells only on which side of the number the result lay.

B1: engineered M12-L binder (SEQ ID NO: 49) (designed binder, not shown: small tags and cut ends; large carriers)
chain: QVSVQPNFQQDKFLGRWFVAGIASNSSWSREKIAALSFAKGVVAPATDGGLNYTETVLRKNQCETQTVLLQPAGSLGSYSARSPHQGSTRSFSVVETDYDQYALLYAQGSKGPGEDDRVAGLWSRTQTPRAELKEKFTAFSKAQGFTEDTIVFLPQTDKCMTEQ
In experiment [1], B1 registered an encoding efficiency (fraction of recording tags encoded) above 0.15.

B2: SEQ ID NO 27 (designed binder, not shown: small tags and cut ends; large carriers)
chain: QVSVQPNFQQDKFLGRWFIAGQASNSSWQREKCAALSRAKVVVAPATDGGLNLTMTLLRKNQCETRTTLLQPAGSLGSYSYRSPHLGSTVSWSVVETDYDQYALMYVQGSKGPGEDQRFAILWSRTQTPRAELKEKFTAFSKAQGFTEDTIVFLPQTDKCMTEQ
For the molecule B2, in [2], the P2 score was determined as 0.312. The molecule also displayed a P1 score in experiment [3] of 0.0571.

B3: SEQ ID NO 51 (designed binder, not shown: small tags and cut ends; large carriers)
chain: QIPLCANLVPVPITNATLDRITGKWFHIASAIRNEEYNKSVQRQQSTHFYITPNKTEDTIFTRVYQTRQNQCFYNSSYLNVQRENGTVSLYSGGREVVGHLLFLRDTKTLMWGTYLDDEKNWGLEFWADKPETTKEQLGEFYEALDCLRIPRSDVMYTDWKKDKCEPLEKQHEKERKQEEGES
In the case of B3, the fold affinity over an otherwise identical peptide with a different P1 in experiment [4] was above 2 fold.

B4: engineered M12-F binder (SEQ ID NO: 50) (designed binder, not shown: small tags and cut ends; large carriers)
chain: GPVPTPPDNIQVQENFNISRIYGKWYPLAMGSTSPYLKKSMDIMTPSYLVLGEGATEAEISWTETFWRKGVCEEGSGALEKTDTDGKFLYHKSKWNITEERYVVHTNYDEYAIVLVKKFSRHHGPTIEAVLMGRAPQLRETLLQDFRVVAQGVGIPEDSIFTMADRGECVPGEQ
Molecule B4 gave an encoding efficiency (fraction of recording tags encoded) in [5] above 0.15.

B5: SEQ ID NO 48 (designed binder, not shown: small tags and cut ends; large carriers)
chain: QDSTQNLIPAPSLLTVPLQPDFRSDQFRGRWYVVGLAGNAVQKKTEGSFTMLSLIYELQENNSYNVTAIFVRDQDQGCRYVIDTLVPSSRAGQFTPGSMGRFPQVQSYNVQVATTDYNQFAMVFVRVTSENKQYFEITLLGRTKELSPELKERFTRFAKSLGLKDDNIIFSVPTDQCIDNSAWSHPQFEK
Molecule B5 displayed a P2 score in experiment [6] of 0.255. The molecule further displayed a P1 score in [7] of 0.238.

B6: SEQ ID NO 53 (designed binder, not shown: small tags and cut ends; large carriers)
chain: QIPLCANLVPVPITNATLDRITGKWFLIASASRNEEYNKSVQGSQNTAFYFTPNKTEDTIFLRRYQTRQNQCFYNSSYLNVQRENGTVSSYFGGRENVIHLLFLRDTKTLMLGRYLDDEKNWGLEFYADKPETTKEQLGEFYEALDCLRIPRSDVMYTDWKKDKCEPLEKQHEKERKQEEGES
B6 registered a fold affinity over an otherwise identical peptide with a different P1 in [8] above 2 fold.

B7: SEQ ID NO 45 (designed binder, not shown: small tags and cut ends; large carriers)
chain: TVPDRSEIAGKWYVVALASNTEFLLREKDSLKSAMARISFLGEDELKVSYARPLPNGCLKLEATMKKTSDDGEVYLSRSAKLKVEVLDTDYKSYAVIYATPVKDGRTRHYMALYSRSPEVSPAATAIFRKLAGERNYTDEMVAMLPRQEECTVDEV
In turn, B7 returned a P2 score in [9] of 0.426. In addition, the P1 score in experiment [10] was 0.301.

B8: SEQ ID NO 54 (designed binder, not shown: small tags and cut ends; large carriers)
chain: QIPLCANLVPVPITNATLDRITGKWFVIASATRNEEYNKSVQRQQGTVFYYTPNKTEDTIFVRRYQTRQNQCFYNSSYLNVQRENGTVSFYEGGRELVFHLLFLRDTKTLMWGLYLDDEKNWGLEFFADKPETTKEQLGEFYEALDCLRIPRSDVMYTDWKKDKCEPLEKQHEKERKQEEGES
B8 showed a fold affinity over an otherwise identical peptide with a different P1 in [11] above 2 fold.
